Molecular target: pFAST_(99-114)–FRB–pFAST_(1-98)
Assay: split reporter

percent complementation at 5 μM HBR-2,5DM without rapamycin: < 6.5%
Substance: FKBP–pFAST_(115-125)
